Literature values, collected in publication PMC10361719.

Target: Gag (Human immunodeficiency virus 1) (UniProt O93182)

Gag, sequence (O93182 2-500): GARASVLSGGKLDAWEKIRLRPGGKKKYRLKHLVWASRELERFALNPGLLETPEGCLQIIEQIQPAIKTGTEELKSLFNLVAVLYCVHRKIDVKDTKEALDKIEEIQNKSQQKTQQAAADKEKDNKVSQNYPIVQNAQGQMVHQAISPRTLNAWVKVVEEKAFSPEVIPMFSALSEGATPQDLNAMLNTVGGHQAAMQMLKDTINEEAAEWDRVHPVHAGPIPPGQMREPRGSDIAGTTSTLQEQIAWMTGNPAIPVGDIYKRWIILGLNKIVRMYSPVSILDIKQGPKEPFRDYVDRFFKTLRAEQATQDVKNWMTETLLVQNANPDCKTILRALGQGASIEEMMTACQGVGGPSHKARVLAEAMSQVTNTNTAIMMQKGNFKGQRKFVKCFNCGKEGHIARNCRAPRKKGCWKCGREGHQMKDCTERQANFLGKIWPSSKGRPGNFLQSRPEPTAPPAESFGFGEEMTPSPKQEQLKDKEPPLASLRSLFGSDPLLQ

Question: With Gag (from UniProt O93182) as the substance, how does the Kd read?
Answer: The Kd was 5.5 µM.
